Reference: patent US20180022819A1 (published 2018)

How the values were obtained:
[1] = biological target: T1, prostate-specific membrane antigen (PSMA) (human, UniProt Q04609 1-750); test: flow cytometry binding, 22Rv1 cells; 0 enza (untreated)
[2] = biological target: T1, prostate-specific membrane antigen …; test: flow cytometry binding, 22Rv1 cells; 3 wk enza
[3] = biological target: T1, prostate-specific membrane antigen …; test: flow cytometry binding, 22Rv1 cells; 1 wk enza
[4] = biological target: T1, prostate-specific membrane antigen …; test: flow cytometry binding, 22Rv1 cells; 2 wk enza

T1 sequence (Q04609 whole entry): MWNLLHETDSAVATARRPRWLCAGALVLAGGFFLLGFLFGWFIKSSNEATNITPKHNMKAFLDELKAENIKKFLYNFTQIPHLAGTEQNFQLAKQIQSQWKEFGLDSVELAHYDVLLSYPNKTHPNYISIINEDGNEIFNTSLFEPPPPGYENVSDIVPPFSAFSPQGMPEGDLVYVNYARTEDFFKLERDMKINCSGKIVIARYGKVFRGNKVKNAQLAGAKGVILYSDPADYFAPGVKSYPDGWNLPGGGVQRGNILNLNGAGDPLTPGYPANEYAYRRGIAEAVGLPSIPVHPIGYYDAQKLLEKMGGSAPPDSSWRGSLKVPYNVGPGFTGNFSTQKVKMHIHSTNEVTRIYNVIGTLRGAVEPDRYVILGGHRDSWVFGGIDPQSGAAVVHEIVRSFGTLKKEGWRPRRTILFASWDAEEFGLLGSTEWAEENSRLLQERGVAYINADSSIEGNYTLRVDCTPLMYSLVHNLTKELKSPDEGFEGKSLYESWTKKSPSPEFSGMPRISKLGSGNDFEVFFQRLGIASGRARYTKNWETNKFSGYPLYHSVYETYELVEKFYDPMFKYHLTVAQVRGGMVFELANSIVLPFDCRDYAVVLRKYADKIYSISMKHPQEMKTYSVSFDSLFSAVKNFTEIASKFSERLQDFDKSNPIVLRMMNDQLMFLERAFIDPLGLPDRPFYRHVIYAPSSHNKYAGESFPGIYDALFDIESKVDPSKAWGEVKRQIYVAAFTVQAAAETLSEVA

EC50 [1]: 2.2 nM
EC50 [2]: 2.7 nM
EC50 [3]: 2.3 nM
EC50 [4]: 2.5 nM
B1: FITC-labeled anti-PSMA monoclonal antibody 107-1A4 (Acris) (antibody, V domains shown)
VH: EIQLQQSGPELVKPGASVKMSCKASGYTFTDYYMHWVKQNNGESLEWIGYFNPYNDYTRYNQNFNGKATLTVDKSSSTAYMQLNSLTSEDSAFYYCARSDGYYDAMDYWGQGTSVTVSS
VL: DVQITQSPSYLAASPGETITINCRASKSISKYLAWYQEKPGKANKLLIHSGSTLQSGIPSRFSGSGSGTDFTLTISSLEPEDFAMYYCQQHIEYPWTFGGGTKLEIKR
